Values of other authors as cited in patent US11819552B2, “Antibody-drug conjugates targeting uPARAP” (RIGSHOSPITALET, priority 2016, dated 2023).

Tests used:
Details in all cases: Jürgensen et al., 2014; cited from earlier work
uPARAP [1] = target: T1, uPARAP (Homo sapiens, UniProt Q9UBG0)
T1 sequence (Q9UBG0 31-1479): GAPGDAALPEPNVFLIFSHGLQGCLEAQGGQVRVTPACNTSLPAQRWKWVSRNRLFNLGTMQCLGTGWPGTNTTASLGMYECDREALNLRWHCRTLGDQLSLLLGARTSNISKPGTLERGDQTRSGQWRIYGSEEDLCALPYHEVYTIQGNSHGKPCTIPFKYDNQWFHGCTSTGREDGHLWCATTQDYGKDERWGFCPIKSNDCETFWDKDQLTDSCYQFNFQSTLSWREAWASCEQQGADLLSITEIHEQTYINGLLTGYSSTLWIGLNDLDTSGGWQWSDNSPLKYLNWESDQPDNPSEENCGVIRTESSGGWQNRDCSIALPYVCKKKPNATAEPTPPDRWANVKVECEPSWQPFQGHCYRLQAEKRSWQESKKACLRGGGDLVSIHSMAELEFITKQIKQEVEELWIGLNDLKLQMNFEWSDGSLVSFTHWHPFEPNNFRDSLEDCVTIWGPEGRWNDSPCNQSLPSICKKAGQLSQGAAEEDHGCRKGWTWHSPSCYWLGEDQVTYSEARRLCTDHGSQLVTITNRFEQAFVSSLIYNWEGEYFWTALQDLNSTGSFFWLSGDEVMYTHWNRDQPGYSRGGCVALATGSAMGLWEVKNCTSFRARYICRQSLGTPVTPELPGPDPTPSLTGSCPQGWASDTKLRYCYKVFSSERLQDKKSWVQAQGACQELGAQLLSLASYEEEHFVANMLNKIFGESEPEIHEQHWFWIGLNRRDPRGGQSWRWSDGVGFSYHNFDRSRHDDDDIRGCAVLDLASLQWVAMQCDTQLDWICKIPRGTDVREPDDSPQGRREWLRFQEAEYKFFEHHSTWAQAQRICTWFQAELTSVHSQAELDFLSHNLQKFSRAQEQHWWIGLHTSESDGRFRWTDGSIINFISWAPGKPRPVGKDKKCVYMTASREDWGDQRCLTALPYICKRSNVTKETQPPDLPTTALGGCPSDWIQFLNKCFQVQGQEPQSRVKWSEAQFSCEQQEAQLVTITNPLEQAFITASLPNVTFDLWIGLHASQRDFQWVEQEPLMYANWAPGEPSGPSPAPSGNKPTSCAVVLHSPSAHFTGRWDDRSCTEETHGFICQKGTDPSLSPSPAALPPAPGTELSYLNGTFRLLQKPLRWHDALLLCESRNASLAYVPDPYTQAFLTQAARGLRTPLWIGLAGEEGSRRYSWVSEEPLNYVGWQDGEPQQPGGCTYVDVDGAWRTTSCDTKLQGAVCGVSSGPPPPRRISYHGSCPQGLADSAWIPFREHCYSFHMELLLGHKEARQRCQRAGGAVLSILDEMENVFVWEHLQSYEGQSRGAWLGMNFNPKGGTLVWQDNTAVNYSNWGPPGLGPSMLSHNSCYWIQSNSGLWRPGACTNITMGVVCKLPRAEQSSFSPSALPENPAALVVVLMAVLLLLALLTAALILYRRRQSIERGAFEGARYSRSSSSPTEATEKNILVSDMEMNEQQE

uPARAP [2] = test system: uPARAP
[3] = test system: other members of the mannose receptor family

B1: mAb 5f4: mouse monoclonal IgG1K anti-uPARAP antibody, epitope in the FN-II domain (antibody, V domains shown)
VL: DIVMTQSQKFMSTSLGARVSITCKASQNVGSNVVWYQQKLGQSPKALIYSASSRFSGVPDRFTGSGSGTDFTLTISNVQSEDLAEYFCQQYNTYPLAFGAGTKLELK
VH: DVQLQESGPGLVKPSQSLSVTCTVTGYSITNAYYWNWIRHFPGNKLEWLGYIHSSGDTNYNPSLKSRISITRDTSKNQFFLQLNSVTTEDTATYYCARSPYYSNYFPYWGQGTLVTVSA
uPARAP [1]
  Binding to wildtype uPARAP: capable of binding
uPARAP [2]
  Binding to uPARAP with FN-II domain swapped with that of other family members: not capable of binding
[3]
  Binding to artificial family members with FN-II domain switched with that of uPARAP: capable of binding
  Binding to other mannose receptor family members in wildtype form: not capable of binding
